Experimental data as given in patent US20060121570A1 (published 2006).

Legend:
[1] = biological target: T1, platelet integrin αIIbβ3 (human platelet glycoprotein gpIIb/IIIa), purified (human, UniProt P08514 32-1039; P05106 27-788); assay: inhibition of 125I-fibrinogen binding to purified αIIbβ3
T1 construct: mature

[2] = biological target: T1, platelet integrin αIIbβ3 (human …); assay: SPR (BIAcore), αIIbβ3 immobilized

Binder	IC50 [1]	kon [2]
Ac-GCSFGRNDSRNCY-NH2 (cysteine pairing not given here, also called peptide 40 (linear)) [linear peptide GCSFGRNDSRNCY derived from the HCDR3 of MTF-40]	500 nM	
CSFGRTDQRNC (HELM PEPTIDE1{[ac].C.S.F.G.R.T.D.Q.R.N.C.[am]}$PEPTIDE1,PEPTIDE1,2:R3-12:R3$$$V2.0; SMILES CC(=O)N[C@H]1CSSC[C@@H](C(N)=O)NC(=O)[C@H](CC(N)=O)NC(=O)[C@H](CCCNC(=N)N)NC(=O)[C@H](CCC(N)=O)NC(=O)[C@H](CC(=O)O)NC(=O)[C@H]([C@@H](C)O)NC(=O)[C@H](CCCNC(=N)N)NC(=O)CNC(=O)[C@H](Cc2ccccc2)NC(=O)[C@H](CO)NC1=O, also called peptide 32 (circular)) [circular peptide CSFGRTDQRNC derived from the HCDR3 of MTF-32]	2000 nM	
fibrinogen (ligand) chain 1: ADSGEGDFLAEGGGVRGPRVVERHQSACKDSDWPFCSDEDWNYKCPSGCRMKGLIDEVNQDFTNRINKLKNSLFEYQKNNKDSHSLTTNIMEILRGDFSSANNRDNTYNRVSEDLRSRIEVLKRKVIEKVQHIQLLQKNVRAQLVDMKRLEVDIDIKIRSCRGSCSRALAREVDLKDYEDQQKQLEQVIAKDLLPSRDRQHLPLIKMKPVPDLVPGNFKSQLQKVPPEWKALTDMPQMRMELERPGGNEITRGGSTSYGTGSETESPRNPSSAGSWNSGSSGPGSTGNRNPGSSGTGGTATWKPGSSGPGSTGSWNSGSSGTGSTGNQNPGSPRPGSTGTWNPGSSERGSAGHWTSESSVSGSTGQWHSESGSFRPDSPGSGNARPNNPDWGTFEEVSGNVSPGTRREYHTEKLVTSKGDKELRTGKEKVTSGSTTTTRRSCSKTVTKTVIGPDGHKEVTKEVVTSEDGSDCPEAMDLGTLSGIGTLDGFRHRHPDEAAFFDTASTGKTFPGFFSPMLGEFVSETESRGSESGIFTNTKESSSHHPGIAEFPSRGKSSSYSKQFTSSTSYNRGDSTFESKSYKMADEAGSEADHEGTHSTKRGHAKSRPV chain 2: QGVNDNEEGFFSARGHRPLDKKREEAPSLRPAPPPISGGGYRARPAKAAATQKKVERKAPDAGGCLHADPDLGVLCPTGCQLQEALLQQERPIRNSVDELNNNVEAVSQTSSSSFQYMYLLKDLWQKRQKQVKDNENVVNEYSSELEKHQLYIDETVNSNIPTNLRVLRSILENLRSKIQKLESDVSAQMEYCRTPCTVSCNIPVVSGKECEEIIRKGGETSEMYLIQPDSSVKPYRVYCDMNTENGGWTVIQNRQDGSVDFGRKWDPYKQGFGNVATNTDGKNYCGLPGEYWLGNDKISQLTRMGPTELLIEMEDWKGDKVKAHYGGFTVQNEANKYQISVNKYRGTAGNALMDGASQLMGENRTMTIHNGMFFSTYDRDNDGWLTSDPRKQCSKEDGGGWWYNRCHAANPNGRYYWGGQYTWDMAKHGTDDGVVWMNWKGSWYSMRKMSMKIRPFFPQQ chain 3: YVATRDNCCILDERFGSYCPTTCGIADFLSTYQTKVDKDLQSLEDILHQVENKTSEVKQLIKAIQLTYNPDESSKPNMIDAATLKSRKMLEEIMKYEASILTHDSSIRYLQEIYNSNNQKIVNLKEKVAQLEAQCQEPCKDTVQIHDITGKDCQDIANKGAKQSGLYFIKPLKANQQFLVYCEIDGSGNGWTVFQKRLDGSVDFKKNWIQYKEGFGHLSPTGTTEFWLGNEKIHLISTQSAIPYALRVELEDWNGRTSTADYAMFKVGPEADKYRLTYAYFAGGDAGDAFDGFDFGDDPSDKFFTSHNGMQFSTWDNDNDKFEGNCAEQDGSGWWMNKCHAGHLNGVYYQGGTYSKASTPNGYDNGIIWATWKTRWYSMKKTTMKIIPFNRLTIGEGQQHHLGGAKQAGDV		600000 M⁻¹ s⁻¹
CSFGRNDSRNC (HELM PEPTIDE1{[ac].C.S.F.G.R.N.D.S.R.N.C.[am]}$PEPTIDE1,PEPTIDE1,2:R3-12:R3$$$V2.0; SMILES CC(=O)N[C@H]1CSSC[C@@H](C(N)=O)NC(=O)[C@H](CC(N)=O)NC(=O)[C@H](CCCNC(=N)N)NC(=O)[C@H](CO)NC(=O)[C@H](CC(=O)O)NC(=O)[C@H](CC(N)=O)NC(=O)[C@H](CCCNC(=N)N)NC(=O)CNC(=O)[C@H](Cc2ccccc2)NC(=O)[C@H](CO)NC1=O, also called peptide 40 (circular)) [circular peptide CSFGRNDSRNC derived from the HCDR3 of MTF-40]	500 nM	
Ac-GCSFGRTDQRNCY-NH2 (cysteine pairing not given here, also called peptide 32 (linear)) [linear peptide GCSFGRTDQRNCY derived from the HCDR3 of MTF-32]	2000 nM	
